The target in assay [1] is T1, human SIRPA v1 on BWZ cells (BWZ-huSIRPA) (human, UniProt P78324 31-504).
T1 construct: also called BWZ cells overexpressing human SIRPA; BWZ-huSIRPA v1 cells
Nature of the assay: flow cytometry titration on BWZ cells overexpressing huSIRPA, 4 C. On the procedure: Receptor bound antibodies were detected by staining cells with anti-mouse IgG Fc APC or anti-human IgG PE secondary antibody. Serial dilutions of the monoclonal antibodies were added to 10⁵ BWZ cells overexpressing huSIRPA (BWZ-huSIRPA) and allowed to achieve binding equilibrium at 4° C. After addition of fluorescently labeled secondary antibody and brief washing steps, mean fluorescent intensity (MFI) values as a function of titrated antibody concentration was recorded via FACS analysis. Curves were fit using nonlinear regression analysis with Graphpad Prism 6 software.
(In flow cytometry, cells or beads pass a laser one at a time.)

Assay [2] has as its target T1, human SIRPA v1 on BWZ cells …. Nature of the assay: flow cytometry competition on BWZ-huSIRPA v1 cells, competitor: fluorophore-labelled reference m3F9. The source says:
IC50 values provide another comparison of relative affinity.

The target of assay [3] is T2, histidine-tagged human SIRPA (Sino Biological) (human, UniProt P78324 31-370).
T2 construct: bought, soluble; also called histidine-tagged huSIRPA isoform 1; soluble SIRPA antigen; not shown: histidine tag
Nature of the assay: BLI (Octet RED96), antibody captured on anti-human IgG Fc sensor, His-tagged SIRPA in solution, 1:1 model. The protocol:
(§1) Affinity measurements for the anti-SIRPA antibodies were performed as follows. Bio-layer interferometry (BLI) data were collected on a Pall ForteBio Octet RED96 instrument. Data analysis was performed using ForteBio Data Analysis Software, version 9.0. Standard kinetic buffer (PBS, 0.100 BSA, 0.02% Tween-20, pH 7.2) was used for the assay and for preparing reagents. […] Varying concentrations (0-200 nM) of histidine-tagged human SIRPA (Sino Biological, Beijing, China) were then bound to the captured anti-SIRPA surface (300 s association time, 600 s dissociation time). The resulting BLI signal was obtained as the difference in response from the reference (2.5 μg/mL IgG+0 nM SIRPA) sensor. […] Multi-concentration kinetic analysis was performed using a 1:1 interaction model to extract association and dissociation rate constants (ka and kd, respectively) for each antibody. Binding affinity constants (KD) were calculated from the ratio kd/ka.
(§2) Best-fit traces from the resulting sensorgrams were analyzed to calculate association rate, dissociation rate, and affinity values.

In assay [4] the target is T3, CynoSIRPA (NP_001271679.1) (cynomolgus, UniProt A0A2K5VYQ9 31-507).
T3 sequence: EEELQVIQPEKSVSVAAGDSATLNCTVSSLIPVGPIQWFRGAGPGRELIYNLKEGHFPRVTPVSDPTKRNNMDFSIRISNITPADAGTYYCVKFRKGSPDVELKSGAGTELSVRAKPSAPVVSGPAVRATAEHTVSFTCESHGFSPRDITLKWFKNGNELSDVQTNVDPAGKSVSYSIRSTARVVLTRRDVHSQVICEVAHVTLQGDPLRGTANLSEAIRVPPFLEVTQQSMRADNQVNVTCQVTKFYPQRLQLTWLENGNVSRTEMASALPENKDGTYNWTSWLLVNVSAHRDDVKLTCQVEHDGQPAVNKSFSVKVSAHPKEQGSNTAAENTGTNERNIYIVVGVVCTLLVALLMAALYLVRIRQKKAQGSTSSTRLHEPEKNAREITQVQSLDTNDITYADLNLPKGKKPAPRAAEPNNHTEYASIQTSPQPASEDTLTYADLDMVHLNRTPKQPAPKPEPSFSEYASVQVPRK
Kind of assay: ELISA, plate coated with SIRP protein. On the procedure: (§3) In an ELISA assay, 96-well Immulon HBX plates were coated with His- or Fc-tagged SIRPA of a given species, as indicated, at 1 μg/mL in PBS overnight at 4C. Plates were blocked in 5% (w/v) bovine serum albumin in PBS for 1 hour, after which they were washed 3 times with PBS/0.05% Tween 20 (PBS/T). Anti-SIRPA antibodies were added to the plate in a dilution series and were incubated at room temperature for 2 hours, after which the unbound antibody was removed by washing with PBS/T. Horseradish peroxidase-conjugated anti-mouse IgG or anti-human kappa light chain (Jackson Immunoresearch) was then added to the wells and incubated for 30 minutes. Unbound antibody was removed by washing with PBS/T, after which bound antibody was detected using tetramethylbenzidine (TMB). The reaction was stopped with 2N H₂SO₄, after which the plates were read at A450.
For orientation: ELISA stands for enzyme-linked immunosorbent assay.

Assay [5] deals with T4, human SIRPA on human macrophages (primary monocyte-derived macrophages; U937 line) (human, UniProt P78324 31-504). Kind of assay: cell-based or functional assay.
The target of assay [6] is T4, human SIRPA on human macrophages …. Kind of assay: cell-based or functional assay. This is another data set of the same source.
The target of another assay is T5, huSIRPA v.2 NP542970.1 (human, UniProt P78324 31-373, limits assumed).
T5 construct: see m48; also called human SIRPA v2; human SIRPA-Fc (v2)
Kind of assay: ELISA, plate coated with tagged SIRPA at 1 ug/mL. The protocol: as §3

The next assay deals with T6, cynoSIRPA XPO15313153.1 (cynomolgus, UniProt A0A2K5VYQ9).
T6 construct: not tied one by one in the text; also called cynomolgus SIRPA; not shown: Fc or His tag
T6 sequence: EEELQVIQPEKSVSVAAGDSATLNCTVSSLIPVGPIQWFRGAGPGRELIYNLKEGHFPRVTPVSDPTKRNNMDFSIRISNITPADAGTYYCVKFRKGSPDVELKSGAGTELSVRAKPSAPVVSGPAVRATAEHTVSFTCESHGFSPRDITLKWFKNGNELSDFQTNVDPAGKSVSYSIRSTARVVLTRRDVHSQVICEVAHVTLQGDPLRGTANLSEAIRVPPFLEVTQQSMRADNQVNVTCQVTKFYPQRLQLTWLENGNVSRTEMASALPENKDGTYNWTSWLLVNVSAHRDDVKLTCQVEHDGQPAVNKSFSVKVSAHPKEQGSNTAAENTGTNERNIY
Kind of assay: ELISA, plate coated with tagged SIRPA at 1 ug/mL. The protocol:
as §3

For a further assay, the target named is T7, rat SIRPA (rat, UniProt P97710 32-373, limits assumed).
T7 sequence (looked up): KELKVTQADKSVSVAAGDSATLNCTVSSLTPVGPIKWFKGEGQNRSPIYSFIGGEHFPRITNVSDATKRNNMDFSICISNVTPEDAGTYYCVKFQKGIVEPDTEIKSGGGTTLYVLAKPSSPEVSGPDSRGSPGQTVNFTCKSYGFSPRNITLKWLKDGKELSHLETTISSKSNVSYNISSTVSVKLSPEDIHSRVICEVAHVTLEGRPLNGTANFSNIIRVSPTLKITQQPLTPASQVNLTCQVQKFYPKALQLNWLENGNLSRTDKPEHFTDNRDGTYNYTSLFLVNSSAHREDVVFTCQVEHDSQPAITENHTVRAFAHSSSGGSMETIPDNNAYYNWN
Nature of the assay: ELISA, plate coated with tagged SIRPA at 1 ug/mL. The protocol:
as §3

Assay [7] has as its target T1, human SIRPA v1 on BWZ cells …. Nature of the assay: flow cytometry titration on BWZ-huSIRPA cells, 4 C. The protocol: After addition of fluorescently labeled secondary antibody and brief washing steps, MFI values as a function of titrated antibody concentration was recorded via FACS analysis. […] Receptor bound antibodies were detected by staining cells with anti-human IgG PE secondary antibody. Curves were fit using nonlinear regression analysis with Graphpad Prism 6 software.

Assay [8] concerns the target T2, histidine-tagged human SIRPA (Sino …). Nature of the assay: BLI (Octet RED96), antibody captured on anti-mouse IgG Fc sensor, His-tagged SIRPA in solution, 1:1 model. The protocol: as §1, §2
On the technique in general: BLI is a label-free optical method that tracks binding on a fibre tip over time.

Numbering of substitutions follows the chain as printed.

T4 sequence (P78324 31-370): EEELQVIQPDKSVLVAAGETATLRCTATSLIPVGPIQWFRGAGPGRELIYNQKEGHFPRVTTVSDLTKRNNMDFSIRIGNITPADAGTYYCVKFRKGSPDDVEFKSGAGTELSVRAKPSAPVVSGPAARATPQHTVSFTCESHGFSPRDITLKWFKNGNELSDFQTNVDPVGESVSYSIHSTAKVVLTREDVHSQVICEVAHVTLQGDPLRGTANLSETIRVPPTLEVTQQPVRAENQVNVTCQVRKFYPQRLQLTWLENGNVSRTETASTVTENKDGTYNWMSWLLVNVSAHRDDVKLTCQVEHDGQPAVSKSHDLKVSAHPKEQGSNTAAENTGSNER
T2 sequence (P78324 31-370 limits assumed): as the sequence (P78324 31-370) above
T1 sequence (P78324 31-504): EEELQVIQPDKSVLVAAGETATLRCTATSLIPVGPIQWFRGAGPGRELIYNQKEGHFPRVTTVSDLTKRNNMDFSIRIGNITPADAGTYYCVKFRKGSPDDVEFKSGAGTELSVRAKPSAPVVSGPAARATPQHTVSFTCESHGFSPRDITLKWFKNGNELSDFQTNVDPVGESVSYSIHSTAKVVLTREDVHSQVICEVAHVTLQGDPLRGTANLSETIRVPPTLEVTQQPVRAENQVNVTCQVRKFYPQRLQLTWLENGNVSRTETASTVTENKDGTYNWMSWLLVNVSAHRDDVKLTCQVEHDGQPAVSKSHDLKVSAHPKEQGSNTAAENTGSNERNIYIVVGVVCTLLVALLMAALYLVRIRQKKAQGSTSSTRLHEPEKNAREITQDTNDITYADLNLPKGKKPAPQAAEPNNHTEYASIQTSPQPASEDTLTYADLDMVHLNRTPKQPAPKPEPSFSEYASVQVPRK
T5 sequence (P78324 31-373 limits assumed): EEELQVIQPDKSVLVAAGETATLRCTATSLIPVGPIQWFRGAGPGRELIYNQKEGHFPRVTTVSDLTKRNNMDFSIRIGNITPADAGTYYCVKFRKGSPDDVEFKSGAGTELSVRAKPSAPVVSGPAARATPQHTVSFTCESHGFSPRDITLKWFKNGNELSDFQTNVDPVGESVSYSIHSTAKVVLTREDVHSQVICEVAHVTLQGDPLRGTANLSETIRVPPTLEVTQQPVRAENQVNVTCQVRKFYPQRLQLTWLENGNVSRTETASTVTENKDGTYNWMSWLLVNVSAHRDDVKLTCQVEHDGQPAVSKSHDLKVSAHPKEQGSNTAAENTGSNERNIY

B1: mAb 14.70.2 (antibody, human IgG4, V domains shown)
VH: EVQLLESGGGLVQPGGSLRLSCAASGFTFSSYAMSWVRQAPGKGLEWVSTISDYGGSYTYYADSVKGRFTISRDNSKNTLYLQMNSLRAEDTAVYYCAKPPYDDYYGGFAYWGQGTLVTVSS
VL: DIQLTQSPSSLSASVGDRVTITCRASKSVSSSGYSYMHWYQQKPGKAPKLLIYLASNLESGVPSRFSGSGSGTDFTLTISSVQPEDFATYYCQHNRELPCTFGQGTKLEIK
notes: also called h3F9 H1/L2; h3F9 IgG4
What is called EC50 is the concentration that produces a half-maximal response. Low readings indicate greater potency, high ones weaker potency. One may read the IC50 as the midpoint of a concentration-inhibition curve. A low value points to greater potency. Usually Kd stands for a measure of binding affinity in units of concentration. What is called koff is the rate constant with which the complex falls apart. High values mean fast dissociation, low ones slow dissociation. The kon is a measure of how fast the partners come together. Lower therefore signals slow association. With B1, the EC50 in assay [1] is 0.968 nM. In assay [2], this molecule came in with an IC50 of 2.19 nM. Besides, in [3], the Kd is 20 nM, the koff stood at 0.0022 s⁻¹ and the kon was 110000 M⁻¹ s⁻¹.

B2: mAb 14.70.4 (antibody, human IgG4, V domains shown)
VH: B1 VH with S49A, K99R
VL: B1 VL with L4M, V82L
notes: also called h3F9 H2/L1; h3F9 IgG4
In assay [1], B2 displayed a 50% effective concentration (EC50) of 1.61 nM. Besides, the IC50 in assay [2] turned out to be 4.61 nM. In [3], binding was put at a Kd of 11 nM, the off-rate (koff) amounted to 0.00094 s⁻¹ and the kon came to 86000 M⁻¹ s⁻¹.

B3: anti-SIRPA antibody 9C2 (antibody, V domains shown)
VH: EFQLQQSGAELVKPGASVKISCKASGYSLTGYNMNWVKQSRGKSLEWIGNINPHYGSSTYNQNFKDKATLTVDKSSSAAYMQFNSLTSEDSAVYYCAREGYDGVFDYWGQGTTLTVSS
VL: QIVLSQSPAILSASPGEKVTMTCRASSSVSYMHWYQQKPGSSPKPWIYVTSNLASGVPTRFSGSGSGTSYSLTISRVEAEDAATYYCQQWSSNPRTFGGGTKLEIK
notes: described in PCT/US2017/65366; also called mAb 9C2
B3 gave an EC50 in [4] of 7.44 nM.

B4: 3F9-22-huIgG1 PS (antibody)
heavy: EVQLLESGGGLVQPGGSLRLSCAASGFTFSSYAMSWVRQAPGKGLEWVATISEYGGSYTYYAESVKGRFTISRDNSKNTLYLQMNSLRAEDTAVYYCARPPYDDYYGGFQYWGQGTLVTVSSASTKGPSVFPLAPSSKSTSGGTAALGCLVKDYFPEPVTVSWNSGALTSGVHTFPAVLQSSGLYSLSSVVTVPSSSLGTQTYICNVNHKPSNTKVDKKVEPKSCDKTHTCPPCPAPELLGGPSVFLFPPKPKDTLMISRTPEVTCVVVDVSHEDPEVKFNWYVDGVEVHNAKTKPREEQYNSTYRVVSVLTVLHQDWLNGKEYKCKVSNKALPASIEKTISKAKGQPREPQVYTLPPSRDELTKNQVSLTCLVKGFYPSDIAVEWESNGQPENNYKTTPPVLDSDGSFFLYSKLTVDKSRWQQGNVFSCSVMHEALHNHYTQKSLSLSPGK
light: DIQLTQSPSSLSASVGDRVTITCRASKSVSSGGYSYMHWYQQKPGKAPKLLIYLASNLESGVPSRFSGSGSGTDFTLTISSVQPEDFATYYCQHNRELPVTFGQGTKLEIKRTVAAPSVFIFPPSDEQLKSGTASVVCLLNNFYPREAKVQWKVDNALQSGNSQESVTEQDSKDSTYSLSSTLTLSKADYEKHKVYACEVTHQGLSSPVTKSFNRGEC
On to B4, for which, in assay [5], the “IC50 (nM), SIRPA downregulation on human monocyte-derived macrophages” value came to 0.047 nM and the “Max % DR, SIRPA, human monocyte-derived macrophages” value came out at 73.8%. For the same molecule, in assay [6], the “EC50 (nM), phagocytosis of A375 cells by primary human macrophages” value came to 0.114 nM and the “Max, fold increase in phagocytosis over baseline activity” value stood at 2.07 fold.

B5: mouse anti-SIRPA antibody m3F9 (antibody, mouse IgG1, V domains shown)
VH: EVKLVESGGGLVKPGGSLKLSCAASGFTFSSYAMSWVRQTPEKRLEWVATISDYGGSYTYYPDSVKGRFTISRDNAKYTLYLQMSSLRSEDTALYYCARPPYDDYYGGFAYWGQGTLVTVSA
VL: DIVLTQSPASLAVSLGQRATISCRASKSVSSSGYSYMHWYQQKPGQPPKLLIYLASNLESGVPARFSGSGSGTDFTLNIHPVEEEDAATYYCQHNRELPCTFGGGTKLEIK
notes: hybridoma-derived murine IgG1; also called Parental m3F9 IgG1; 3F9 mIgG1
With B5, the 50% effective concentration (EC50) in assay [4] is 0.658 nM; with huSIRPA v.2 NP542970.1, 0.695 nM; with cynoSIRPA XPO15313153.1, 1.09 nM; in assay [7], 0.72 nM; in [1], 2.1 nM. In addition, the binding result in the assay with rat SIRPA is “no binding”. Moreover, the half-inhibitory concentration (IC50) in [2] was determined as 11.5 nM. Besides, binding in [8] was characterised by a dissociation constant (Kd) of 18 nM. This molecule also gave a dissociation rate constant (koff) in assay [8] of 0.001 s⁻¹. The association rate constant (kon) in assay [8] was 50800 M⁻¹ s⁻¹.

Values taken from US20240301071A1 (Alector, published 2024).
